Assay results reported in US20160193348A1, “MUCOUS LAYER-ADHESIVE POLY-r-[sequence] ACID NA[…] DRUG [sequence] SYSTEM USING SAME” (priority 2013, published 2016).

Columns and labels:
[1] = immunohistofluorescence imaging after intranasal injection of FITC-labeled OVA; settings: mice
[2] = mucous adhesive property by SPECT/CT imaging after intranasal injection; settings: 123I-labeled, mice, imaging at 1, 6 and 12 hours
Experimental: The selected eluate fraction was diluted with PBS to a final concentration of 500 μg/ml in view of ^123I-activity to be injected per mouse.
The amount of sample injected for SPECT/CT imaging was such that the sample would have a ^123I-activity of about 200 μCi or more in 40 μl upon nasal administration. 40 μl of a sample was injected into each mouse using a tip for nasal administration, and at 1, 6 and 12 hours after injection, SPECT/CT imaging was started. SPECT/CT imaging was performed for about 1 hour, in which CT imaging was performed for 10 minutes, followed by SPECT imaging for 50 minutes. Because the amount of sample injected intranasally is limited to 40 μl or less, the concentration of the sample is necessarily required to ensure ^123I-activity for imaging. ^123I-labeled nanomicelles were centrifuged, filtered (Ultracel, 10 kDa) and concentrated, thereby ensuring activity required for imaging per 40 μl. The sample was injected into both nasal cavities alternately at intervals of a few minutes depending on the size and condition of the mouse.

B1: OVA alone: OVA (ovalbumin, Sigma-Aldrich), model antigen injected alone (protein, UniProt P01012 2-386, looked up)
Ovalbumin: GSIGAASMEFCFDVFKELKVHHANENIFYCPIAIMSALAMVYLGAKDSTRTQINKVVRFDKLPGFGDSIEAQCGTSVNVHSSLRDILNQITKPNDVYSFSLASRLYAEERYPILPEYLQCVKELYRGGLEPINFQTAADQARELINSWVESQTNGIIRNVLQPSSVDSQTAMVLVNAIVFKGLWEKAFKDEDTQAMPFRVTEQESKPVQMMYQIGLFRVASMASEKMKILELPFASGTMSMLVLLPDEVSGLEQLESIINFEKLTEWTSSNVMEERKIKVYLPRMKMEEKYNLTSVLMAMGITDVFSSSANLSGISSAESLKISQAVHAAHAEINEAGREVVGSAEAGVDAASVSEEFRADHPFLFCIKHIATNAVLFFGRCVSP
- time OVA remained in the nasal cavity (immunohistofluorescence) [1]: ~1 h
- time OVA remained in the nasal cavity (SPECT/CT) [2]: ≤ 6 h
